Experimental data published in article PMC5490006 (Nature Communications, 2017).

T1: Mcm4 (budding yeast, UniProt P30665 1-933)
T1 construct: Mcm4, subunit of the budding yeast MCM (Mcm2-7), expressed as an individual subunit; source: E. coli, purified
T1 sequence (looked up): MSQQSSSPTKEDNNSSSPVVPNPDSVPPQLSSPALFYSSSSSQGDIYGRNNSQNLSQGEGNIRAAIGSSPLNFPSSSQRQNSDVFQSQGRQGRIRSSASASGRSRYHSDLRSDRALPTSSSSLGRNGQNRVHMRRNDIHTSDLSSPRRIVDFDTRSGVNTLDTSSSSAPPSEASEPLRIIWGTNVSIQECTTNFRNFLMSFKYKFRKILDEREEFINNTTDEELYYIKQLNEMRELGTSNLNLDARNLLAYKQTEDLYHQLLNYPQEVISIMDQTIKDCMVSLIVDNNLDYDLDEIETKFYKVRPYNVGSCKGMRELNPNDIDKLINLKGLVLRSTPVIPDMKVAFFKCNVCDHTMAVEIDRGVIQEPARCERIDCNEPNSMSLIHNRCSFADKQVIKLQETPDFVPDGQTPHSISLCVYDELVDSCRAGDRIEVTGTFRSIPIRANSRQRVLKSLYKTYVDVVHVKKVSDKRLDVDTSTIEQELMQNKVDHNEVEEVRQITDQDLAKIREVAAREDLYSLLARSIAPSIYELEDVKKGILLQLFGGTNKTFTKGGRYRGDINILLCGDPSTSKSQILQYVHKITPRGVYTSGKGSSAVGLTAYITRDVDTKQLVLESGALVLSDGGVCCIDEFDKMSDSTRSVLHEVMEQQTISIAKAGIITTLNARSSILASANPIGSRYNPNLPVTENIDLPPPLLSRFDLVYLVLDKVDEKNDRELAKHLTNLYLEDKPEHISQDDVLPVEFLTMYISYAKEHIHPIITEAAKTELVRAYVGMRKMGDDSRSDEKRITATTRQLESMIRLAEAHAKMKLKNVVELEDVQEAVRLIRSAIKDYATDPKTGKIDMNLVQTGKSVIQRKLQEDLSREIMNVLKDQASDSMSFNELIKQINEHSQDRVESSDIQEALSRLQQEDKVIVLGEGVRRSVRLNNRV

T2: Mcm2 (budding yeast, UniProt P29469 1-868)
T2 construct: Mcm2, subunit of the budding yeast MCM (Mcm2-7), expressed as an individual subunit; source: E. coli, purified
T2 sequence (looked up): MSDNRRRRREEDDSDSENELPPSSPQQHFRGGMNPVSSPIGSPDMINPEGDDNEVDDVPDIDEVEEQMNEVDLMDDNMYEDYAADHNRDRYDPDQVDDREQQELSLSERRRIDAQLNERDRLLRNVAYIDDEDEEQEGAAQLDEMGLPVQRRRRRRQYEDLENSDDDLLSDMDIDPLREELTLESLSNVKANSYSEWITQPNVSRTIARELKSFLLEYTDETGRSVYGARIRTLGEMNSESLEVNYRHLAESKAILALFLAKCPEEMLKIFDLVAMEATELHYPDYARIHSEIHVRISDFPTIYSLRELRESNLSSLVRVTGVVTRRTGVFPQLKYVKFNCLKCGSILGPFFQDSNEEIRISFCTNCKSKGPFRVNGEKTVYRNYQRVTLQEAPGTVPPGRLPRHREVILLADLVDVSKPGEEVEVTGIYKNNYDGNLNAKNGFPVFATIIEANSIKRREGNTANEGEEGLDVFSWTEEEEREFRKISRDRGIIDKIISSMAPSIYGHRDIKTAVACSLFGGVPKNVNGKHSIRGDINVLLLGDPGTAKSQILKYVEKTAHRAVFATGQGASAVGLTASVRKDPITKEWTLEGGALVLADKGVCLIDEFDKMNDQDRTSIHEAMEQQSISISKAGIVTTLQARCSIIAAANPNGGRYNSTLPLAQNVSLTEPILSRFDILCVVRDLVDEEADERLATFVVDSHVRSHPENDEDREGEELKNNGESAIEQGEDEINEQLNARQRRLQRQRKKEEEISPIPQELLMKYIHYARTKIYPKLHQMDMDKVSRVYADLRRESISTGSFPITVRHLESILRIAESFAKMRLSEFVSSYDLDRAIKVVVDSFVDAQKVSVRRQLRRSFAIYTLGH

B1: Mcm7 (natural protein, budding yeast, UniProt P38132 1-845, looked up)
chain: MSAALPSIQLPVDYNNLFNEITDFLVTFKQDTLSSDATRNENEDENLDAENIEQHLLEKGPKYMAMLQKVANRELNSVIIDLDDILQYQNEKFLQGTQADDLVSAIQQNANHFTELFCRAIDNNMPLPTKEIDYKDDVLDVILNQRRLRNERMLSDRTNEIRSENLMDTTMDPPSSMNDALREVVEDETELFPPNLTRRYFLYFKPLSQNCARRYRKKAISSKPLSVRQIKGDFLGQLITVRGIITRVSDVKPAVEVIAYTCDQCGYEVFQEVNSRTFTPLSECTSEECSQNQTKGQLFMSTRASKFSAFQECKIQELSQQVPVGHIPRSLNIHVNGTLVRSLSPGDIVDVTGIFLPAPYTGFKALKAGLLTETYLEAQFVRQHKKKFASFSLTSDVEERVMELITSGDVYNRLAKSIAPEIYGNLDVKKALLLLLVGGVDKRVGDGMKIRGDINVCLMGDPGVAKSQLLKAICKISPRGVYTTGKGSSGVGLTAAVMKDPVTDEMILEGGALVLADNGICCIDEFDKMDESDRTAIHEVMEQQTISISKAGINTTLNARTSILAAANPLYGRYNPRLSPLDNINLPAALLSRFDILFLMLDIPSRDDDEKLAEHVTYVHMHNKQPDLDFTPVEPSKMREYIAYAKTKRPVMSEAVNDYVVQAYIRLRQDSKREMDSKFSFGQATPRTLLGIIRLSQALAKLRLADMVDIDDVEEALRLVRVSKESLYQETNKSKEDESPTTKIFTIIKKMLQETGKNTLSYENIVKTVRLRGFTMLQLSNCIQEYSYLNVWHLINEGNTLKFVDDGTMDTDQEDSLVSTPKLAPQTTASANVSAQDSDIDLQDA
notes: Mcm7, subunit of the budding yeast MCM (Mcm2-7), expressed as an individual subunit; source: E. coli, purified
B2: Cdt1 (natural protein, S. cerevisiae, UniProt P47112 1-604, looked up)
chain: MSGTANSRRKEVLRVPVIDLNRVSDEEQLLPVVRAILLQHDTFLLKNYANKAVLDALLAGLTTKDLPDTSQGFDANFTGTLPLEDDVWLEQYIFDTDPQLRFDRKCRNESLCSIYSRLFKLGLFFAQLCVKSVVSSAELQDCISTSHYATKLTRYFNDNGSTHDGADAGATVLPTGDDFQYLFERDYVTFLPTGVLTIFPCAKAIRYKPSTMATTDNSWVSIDEPDCLLFHTGTLLARWSQGMHTTSPLQIDPRANIVSLTIWPPLTTPISSKGEGTIANHLLEQQIKAFPKVAQQYYPRELSILRLQDAMKFVKELFTVCETVLSLNALSRSTGVPPELHVLLPQISSMMKRKIVQDDILKLLTIWSDAYVVELNSRGELTMNLPKRDNLTTLTNKSRTLAFVERAESWYQQVIASKDEIMTDVPAFKINKRRSSSNSKTVLSSKVQTKSSNANALNNSRYLANSKENFMYKEKMPDSQANLMDRLRERERRSAALLSQRQKRYQQFLAMKMTQVFDILFSLTRGQPYTETYLSSLIVDSLQDSNNPIGTKEASEILAGLQGILPMDISVHQVDGGLKVYRWNSLDKNRFSKLLQIHKSKQQD
notes: Cdt1, S. cerevisiae; also called Cdt1 WT; wild-type Cdt1; source: recombinant, purified
B3: Cdt1 within purified Cdt1–MCM complexes (natural protein, S. cerevisiae, UniProt P47112 1-604, looked up)
chain: B2 chain
notes: also called Cdt1 (in MCM-GFP,FLAG–Cdt1 complexes and in the Cdt1–MCM complex used for electron microscopy); source: purified Cdt1-MCM complex
B4: Cdt1 fragment 495–604 fused to His-SUMO (domain or fragment, S. cerevisiae, UniProt P47112 495-604, looked up)
chain: AALLSQRQKRYQQFLAMKMTQVFDILFSLTRGQPYTETYLSSLIVDSLQDSNNPIGTKEASEILAGLQGILPMDISVHQVDGGLKVYRWNSLDKNRFSKLLQIHKSKQQD
notes: assigned by the order of description; The crystallised protein had the tag removed; also called CTD; source: His-SUMO fusion; E. coli is told for the crystallised fragment of the same limits
B5: Cdt1 fragment 271–496 fused to His-SUMO (domain or fragment, S. cerevisiae, UniProt P47112 271-496, looked up)
chain: SSKGEGTIANHLLEQQIKAFPKVAQQYYPRELSILRLQDAMKFVKELFTVCETVLSLNALSRSTGVPPELHVLLPQISSMMKRKIVQDDILKLLTIWSDAYVVELNSRGELTMNLPKRDNLTTLTNKSRTLAFVERAESWYQQVIASKDEIMTDVPAFKINKRRSSSNSKTVLSSKVQTKSSNANALNNSRYLANSKENFMYKEKMPDSQANLMDRLRERERRSAA
notes: source: His-SUMO fusion
B6: Cdt1-MC fused to His-SUMO (domain or fragment, S. cerevisiae, UniProt P47112 272-604, looked up)
chain: SKGEGTIANHLLEQQIKAFPKVAQQYYPRELSILRLQDAMKFVKELFTVCETVLSLNALSRSTGVPPELHVLLPQISSMMKRKIVQDDILKLLTIWSDAYVVELNSRGELTMNLPKRDNLTTLTNKSRTLAFVERAESWYQQVIASKDEIMTDVPAFKINKRRSSSNSKTVLSSKVQTKSSNANALNNSRYLANSKENFMYKEKMPDSQANLMDRLRERERRSAALLSQRQKRYQQFLAMKMTQVFDILFSLTRGQPYTETYLSSLIVDSLQDSNNPIGTKEASEILAGLQGILPMDISVHQVDGGLKVYRWNSLDKNRFSKLLQIHKSKQQD
notes: source: His-SUMO fusion

Legend:
Settings in all cases: both partners purified
Mcm4 = target: T1, Mcm4; assay: SEC; 10 μg of each Mcm subunit combined as pairs 3/7, 4/7 and 2/6, dialysed against buffer A, fractionated over Superdex 200 PC 3.2/30 in buffer A; fractions with the dimers pooled
Mcm3 = target: T3, Mcm3 (budding yeast, UniProt P24279 1-971); assay: as above
T3 construct: Mcm3, subunit of the budding yeast MCM (Mcm2-7), expressed as an individual subunit; source: E. coli, purified

Mcm6 [1] = target: T4, Mcm6 (budding yeast, UniProt P53091 1-1017); assay: co-IP; purified Mcm2-7 subunits (0.5 μM) individually incubated with purified Cdt1 (0.5 μM) or buffer, room temperature 60 min, buffer A/2 mM 2-mercaptoethanol; immunoprecipitation with polyclonal anti-Cdt1 antibody on protein A sepharose, 2 h at 4 °C; SDS-PAGE, Coomassie
T4 construct: Mcm6, subunit of the budding yeast MCM (Mcm2-7), expressed as an individual subunit; called Mcm6 fl and the full-length protein; also called Mcm6 fl; full-length Mcm6; source: E. coli, purified

[2] = target: T5, Mcm6 tagged with GFP-FLAG, within an MCM-GFP,FLAG–Cdt1 complex (budding yeast, UniProt P53091 1-1017); assay: cross-linking; MCM-GFP,FLAG-Cdt1 complexes (20 μg) crosslinked with 25 μM BS3, 30 min room temperature, buffer B; denatured with SDS; immunoprecipitation with anti-FLAG beads under denaturing conditions; western blot against Cdt1
T5 construct: Mcm6, budding yeast MCM subunit; also called Mcm6-GFP-FLAG; source: purified MCM-GFP,FLAG-Cdt1 complex; not shown: GFP, C-terminal, kept; FLAG, C-terminal, kept

[3] = target: T6, Mcm6 within purified Cdt1–MCM complexes (budding yeast, UniProt P53091 1-1017); assay: negative-stain electron microscopy; single-particle EM of the Cdt1-MCM complex, apo and with ATPγS, 2% uranyl formate; 3D reconstruction (20.4 and 18.0 Å) with docking of MCM atomic structures and of the Cdt1 NM crystal structure
T6 construct: Mcm6, yeast MCM subunit, as part of the Cdt1-MCM complex; source: purified Cdt1-MCM complex

Mcm6 [4] = target: T4, Mcm6; assay: pull-down; Cdt1-His-SUMO fragments held on Ni-NTA magnetic beads, Mcm2 or Mcm6 in solution; 10 μg of each protein, buffer B (25 mM Hepes-KOH pH 7.6, 0.02% NP-40, 10% glycerol, 0.1 M K glutamate), 60 min at 4 °C; Coomassie
Mcm2 = target: T2, Mcm2; assay: as above

T4 sequence (P53091 whole entry): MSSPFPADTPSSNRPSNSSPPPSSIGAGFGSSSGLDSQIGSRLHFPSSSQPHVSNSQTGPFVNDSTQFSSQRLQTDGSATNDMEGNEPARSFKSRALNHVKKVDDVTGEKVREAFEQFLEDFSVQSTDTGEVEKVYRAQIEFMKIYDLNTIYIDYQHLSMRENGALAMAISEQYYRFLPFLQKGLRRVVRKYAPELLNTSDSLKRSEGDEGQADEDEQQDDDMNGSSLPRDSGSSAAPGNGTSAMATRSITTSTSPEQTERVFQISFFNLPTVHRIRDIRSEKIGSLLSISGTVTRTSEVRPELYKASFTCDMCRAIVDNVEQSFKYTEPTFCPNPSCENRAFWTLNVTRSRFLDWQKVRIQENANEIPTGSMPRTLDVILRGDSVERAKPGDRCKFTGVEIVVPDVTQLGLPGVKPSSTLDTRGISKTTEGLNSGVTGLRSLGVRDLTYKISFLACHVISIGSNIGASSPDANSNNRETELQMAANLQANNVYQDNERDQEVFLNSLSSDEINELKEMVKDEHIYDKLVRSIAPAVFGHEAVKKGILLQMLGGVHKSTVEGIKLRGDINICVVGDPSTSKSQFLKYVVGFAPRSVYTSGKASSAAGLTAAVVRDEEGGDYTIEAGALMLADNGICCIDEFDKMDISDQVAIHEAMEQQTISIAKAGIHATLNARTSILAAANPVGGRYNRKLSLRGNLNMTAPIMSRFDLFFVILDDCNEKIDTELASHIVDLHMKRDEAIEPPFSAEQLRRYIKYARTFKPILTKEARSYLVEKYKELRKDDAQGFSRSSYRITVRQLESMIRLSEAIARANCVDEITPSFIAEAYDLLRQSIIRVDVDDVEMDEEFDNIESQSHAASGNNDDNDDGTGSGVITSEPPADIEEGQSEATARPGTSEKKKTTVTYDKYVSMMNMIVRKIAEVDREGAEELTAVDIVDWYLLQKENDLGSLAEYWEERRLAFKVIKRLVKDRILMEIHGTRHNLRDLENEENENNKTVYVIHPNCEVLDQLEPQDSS
T6 sequence (P53091 whole entry, one chain of several): as the sequence (P53091 whole entry) above
T5 sequence (P53091 whole entry, one chain of several): as the sequence (P53091 whole entry) above
T3 sequence (P24279 whole entry): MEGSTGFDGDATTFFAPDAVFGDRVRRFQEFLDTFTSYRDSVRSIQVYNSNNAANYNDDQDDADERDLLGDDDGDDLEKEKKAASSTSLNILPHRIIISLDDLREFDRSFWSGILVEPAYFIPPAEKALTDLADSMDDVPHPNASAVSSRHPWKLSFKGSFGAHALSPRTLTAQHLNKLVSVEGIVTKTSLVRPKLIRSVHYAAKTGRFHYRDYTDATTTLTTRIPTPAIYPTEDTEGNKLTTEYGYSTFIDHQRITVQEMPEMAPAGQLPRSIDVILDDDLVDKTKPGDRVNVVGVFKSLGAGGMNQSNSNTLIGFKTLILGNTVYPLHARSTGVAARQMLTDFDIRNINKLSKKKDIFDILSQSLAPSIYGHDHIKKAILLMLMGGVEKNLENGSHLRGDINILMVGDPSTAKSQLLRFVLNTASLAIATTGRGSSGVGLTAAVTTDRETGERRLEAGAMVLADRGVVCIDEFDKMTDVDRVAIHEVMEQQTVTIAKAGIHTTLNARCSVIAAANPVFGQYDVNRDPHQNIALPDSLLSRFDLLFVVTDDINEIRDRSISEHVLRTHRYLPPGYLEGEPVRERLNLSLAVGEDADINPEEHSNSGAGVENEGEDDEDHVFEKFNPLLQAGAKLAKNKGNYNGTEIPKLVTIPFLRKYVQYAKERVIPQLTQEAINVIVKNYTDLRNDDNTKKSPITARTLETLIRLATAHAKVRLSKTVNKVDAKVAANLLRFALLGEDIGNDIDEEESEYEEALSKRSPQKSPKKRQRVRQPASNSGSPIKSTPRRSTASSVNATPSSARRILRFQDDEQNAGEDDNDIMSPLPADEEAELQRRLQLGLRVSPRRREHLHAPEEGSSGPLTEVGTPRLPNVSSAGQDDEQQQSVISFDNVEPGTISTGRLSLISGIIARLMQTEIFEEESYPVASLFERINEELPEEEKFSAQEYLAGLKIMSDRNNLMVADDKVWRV

Binder	binding result (Mcm6 [4])	binding result (Mcm2)	other results
B1	–	–	binding result (Mcm4): binds; binding result (Mcm3): binds
B2	–	–	binding result (Mcm6 [1]): binds
B3	–	–	binding result [2]: binds; binding result [3]: binds
B4	binds	binds	–
B5	binds	binds	–
B6	binds	binds	–
